Reference: the supplement of paper PMC11908140

B1: library; numbered along this chain (parent)
chain: MRKPRAAVGSGHRKQAASQEGRQKHAKNNSQAKPSACDGLARQPEEVVLQASVSSYHLFRDVAEVTAFRGSLLSWYDQEKRDLPWRRRAEDEMDLDRRAYAVWVSEVMLQQTQVATVINYYTGWMQKWPTLQDLASASLEEVNQLWAGLGYYSRGRRLQEGARKVVEELGGHMPRTAETLQQLLPGVGRYTAGAIASIAFGQATGVVDGNVARVLCRVRAIGADPSSTLVSQQLWGLAQQLVDPARPGDFNQAAMELGATVCTPQRPLCSQCPVESLCRARQRVEQEQLLASGSLSGSPDVEECAPNTGQCHLCLPPSEPWDQTLGVVNFPRKASRKPPREESSATCVLEQPGALGAQILLVQRPNSGLLAGLWEFPSVTWEPSEQLQRKALLQELQRWAGPLPATHLRHLGEVVHTFSHIKLTYQVYGLALEGQTPVTTVPPGARWLTQEEFHTAAVSTAMKKVFRVYQGQQPGTCMGSKRSQVSSPCSRKKPRMGQQVLDNFFRSHISTDAHSLNSAAQ

Variants of: B1
Assay: 8OG:A repair function score (normalized; synonymous = 0, nonsense = -1) (normalized log-likelihood score); higher = more repair activity (WT-like)
Details: with 8OG:A DNA repair reporter (GFP) in HEK-293 MUTYH KO cells
Protocol: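 Saturation mutagenesis (NNN codon scan) of the MUTYH cDNA (521-aa nuclear isoform NM_001048174.1 / NP_001041639), stably expressed under doxycycline induction in HEK-293 MUTYH knockout cells. Cells were co-transfected with an 8OG:A-bearing GFP repair reporter plus mCherry and sorted 72 h later into GFP+ and GFP− bins, three replicates per tile. The Rosace log2 enrichment (GFP+ vs GFP−) was converted per tile to a normalized function score with synonymous variants centered at 0 and nonsense variants (codons 1-471) at -1; low-abundance variants were removed.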

Variant	8OG:A repair function score
L295F	-0.0139
Q426P	-0.928
A199N	-0.885
S483P	0.0199
E256P	-1.07
G479W	-0.0628
G479M	-0.0116
E385P	-0.17
K481Y	-0.0542
K481D	0.016
H407F	-0.245
E160M	0.0471
I421W	-0.59
E302K	-0.367
N210S	-1.03
N210Y	-1
P185H	-0.43
A67L	-0.0838
A67W	-0.0846
A67P	-0.143
L361R	-1.12

Variant	8OG:A repair function score
I118Q	-0.0947
A280Y	-0.51
E413R	-0.0915
A445V	-0.109
Q111W	-0.869
V465H	-0.79
Q358G	-0.334
G497L	-0.0147
Q472G	-0.000609
G353K	-0.127
Q240K	-0.932
W399V	-0.167
M173C	-0.257
Q310F	-0.0295
A354K	-0.061
A354R	-0.0437
A354V	0.0356
G123H	-0.0466
R87F	-0.0196
R87T	-0.0213
L277V	-0.0751

Variant	8OG:A repair function score
D82V	-0.0236
R2W	-0.00849
T204Y	-0.127
T204M	-0.111
S515A	-0.018
P174K	-0.797
L95F	-0.0596
L95Q	-0.0116
W75H	-0.412
W75Y	-0.448
S270H	0.0198
S270E	-0.0683
S270F	-0.0287
L215A	-0.788
L215G	-0.867
T424K	-0.203
T424P	-0.685
M125P	-1.2
G475R	0.00413
V301C	-0.217
V301F	-0.175

Variant	8OG:A repair function score
E46P	0.0495
E46L	-0.211
R156W	-0.133
E452F	-0.387
Q351F	-0.101
V427H	-1.08
C216G	-0.663
G471A	0.0172
A63T	0.00284
I221W	-0.622
A456D	-0.523
A345P	-0.334
A345E	-0.567
A345Y	-0.126
L315F	-0.147
Q265D	-0.156
Q265R	0.00654
Q265F	-0.022
L169H	-0.0549
L169I	-0.337
T228K	0.0779
